Source: article PMC3643586 (Nucleic Acids Research, 2013)
Values joined by “and” are separate entries in the source; they are usually repeats but may differ in a detail not shown here. Identical values can stand only once. Like-named read-outs stand apart in the source and are kept apart here.

B3: Bacillus subtilis clamp-loader τ subunit (natural protein, UniProt P09122 1-563, looked up)
chain: MSYQALYRVFRPQRFEDVVGQEHITKTLQNALLQKKFSHAYLFSGPRGTGKTSAAKIFAKAVNCEHAPVDEPCNECAACKGITNGSISDVIEIDAASNNGVDEIRDIRDKVKFAPSAVTYKVYIIDEVHMLSIGAFNALLKTLEEPPEHCIFILATTEPHKIPLTIISRCQRFDFKRITSQAIVGRMNKIVDAEQLQVEEGSLEIIASAADGGMRDALSLLDQAISFSGDILKVEDALLITGAVSQLYIGKLAKSLHDKNVSDALETLNELLQQGKDPAKLIEDMIFYFRDMLLYKTAPGLEGVLEKVKVDETFRELSEQIPAQALYEMIDILNKSHQEMKWTNHPRIFFEVAVVKICQTSHQSAADLPEVDMLMKKIQQLEQEVERLKTTGIKAAAESPKKEAPRVPKGGKSNYKAPVGRIHEILKEATRPDLDLLRNSWGKLLAHLKQQNKVSHAALLNDSEPVAAGSAAFVLKFKYEIHCKMVAEDNNGVRTNLEQILESMLGKRMDLIGVPEAQWGKIREEFLEDHQQENEGSNEPAEEDPLIAEAKKLVGADLIEIKD

Assays:
Assay in all cases: native MS
[1] = target: Bacillus subtilis clamp-loader δ subunit (yqeN) (Bacillus subtilis) (UniProt P54459)
[2] = target: B3
[3] = target: the molecule itself
[4] = target: B3; remark: listed apart in the source
[5] = target: B3; remark: listed apart in the source
[6] = target: the molecule itself; remark: listed apart in the source
[7] = target: the molecule itself; remark: listed apart in the source
[8] = target: T1, Bacillus stearothermophilus DnaB helicase (Bacillus stearothermophilus, UniProt Q9X4C9 1-454)
T1 sequence (looked up): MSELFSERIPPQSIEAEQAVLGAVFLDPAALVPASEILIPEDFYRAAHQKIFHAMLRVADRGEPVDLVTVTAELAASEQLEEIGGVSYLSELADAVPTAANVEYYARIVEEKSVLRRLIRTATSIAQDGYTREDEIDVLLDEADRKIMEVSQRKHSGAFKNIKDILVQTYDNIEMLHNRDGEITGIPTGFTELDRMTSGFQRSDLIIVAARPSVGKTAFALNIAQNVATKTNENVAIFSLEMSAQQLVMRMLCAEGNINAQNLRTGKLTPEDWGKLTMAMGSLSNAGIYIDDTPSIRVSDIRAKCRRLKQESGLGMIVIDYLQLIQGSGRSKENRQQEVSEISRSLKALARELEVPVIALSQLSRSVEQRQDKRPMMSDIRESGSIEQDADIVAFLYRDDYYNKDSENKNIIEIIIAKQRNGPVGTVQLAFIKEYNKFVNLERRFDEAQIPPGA

“Bacillus subtilis clamp-loader δ subunit (yqeN) (from UniProt P54459 1-347) (natural protein)” was tested, and the stoichiometry N (subunits in the oligomer) [1] was 2.

B1: Bacillus subtilis clamp-loader δ′ subunit (holB) (natural protein, UniProt P37540 1-329, looked up)
chain: MAISWKEMNELQPRVMKLLYNSIEKDRLSHAYLFEGKKGTGKLDAALLLAKSFFCLEGGAEPCESCRNCKRIESGNHPDLHLVQPDGLSIKKAQIQALQEEFSKTGLESHKKLYIISHADQMTANAANSLLKFLEEPNKDTMAVLITEQPQRLLDTIISRCQTLPFQPLQPKAIEDRLIEQDVSPHMARLLANMTNNVAEAVELSRNDEFAESRAKVIKLYEVLHQRKGHAFFFIQDQWMPFFKEKTHQEMGLDMLLLIYRDVLSIQIGNEDKLIYQDLFQSIKQHALQSTQQSVTNQILAVLEAKKRLHSNVNVQGLMEHLVLMLQEG
In the case of B1, the “stoichiometry N” value [2] is reported as 3 τ per δ′ and 2 τ per δ′ and the “stoichiometry N” value [3] is reported as 2 subunits in the oligomer.

B2: Bacillus subtilis clamp-loader δ subunit (yqeN) (natural protein, UniProt P54459 1-347, looked up)
chain: MVFDVWKSLKKGEVHPVYCLYGKETYLLQETVSRIRQTVVDQETKDFNLSVFDLEEDPLDQAIADAETFPFMGERRLVIVKNPYFLTGEKKKEKIEHNVSALESYIQSPAPYTVFVLLAPYEKLDERKKLTKALKKHAFMMEAKELNAKETTDFTVNLAKTEQKTIGTEAAEHLVLLVNGHLSSIFQEIQKLCTFIGDREEITLDDVKMLVARSLEQNIFELINKIVNRKRTESLQIFYDLLKQNEEPIKIMALISNQFRLILQTKYFAEQGYGQKQIASNLKVHPFRVKLAMDQARLFSEEELRLIIEQLAVMDYEMKTGKKDKQLLLELFLLQLLKRNEKNDPHY
With B2 the “stoichiometry N” value [4] was 2 τ per δ and the “stoichiometry N” value [5] was 3 τ per δ.

B3 was tested, and the “stoichiometry N” value [6] was 3 subunits in the oligomer and 2 subunits in the oligomer and 5 subunits in the oligomer, the “stoichiometry N” value [7] was 4 subunits in the oligomer and the “stoichiometry N” value [8] was 3 τ per DnaB hexamer.
